{"source": "IntAct's records for PubMed 18498651", "parents": {"B1": {"name": "Double-stranded RNA-binding protein Staufen homolog 1 (Homo sapiens), O95793-2 (parent)", "chain": "MKLGKKPMYKPVDPYSRMQSTYNYNMRGGAYPPRYFYPFPVPPLLYQVELSVGGQQFNGKGKTRQAAKHDAAAKALRILQNEPLPERLEVNGRESEEENLNKSEISQVFEIALKRNLPVNFEVARESGPPHMKNFVTKVSVGEFVGEGEGKSKKISKKNAAIAVLEELKKLPPLPAVERVKPRIKKKTKPIVKPQTSPEYGQGINPISRLAQIQQAKKEKEPEYTLLTERGLPRRREFVMQVKVGNHTAEGTGTNKKVAKRNAAENMLEILGFKVPQAQPTKPALKSEEKTPIKKPGDGRKVTFFEPGSGDENGTSNKEDEFRMPYLSHQQLPAGILPMVPEVAQAVGVSQGHHTKDFTRAAPNPAKATVTAMIARELLYGGTSPTAETILKNNISSGHVPHGPLTRPSEQLDYLSRVQGFQVEYKDFPKNNKNEFVSLINCSSQPPLISHGIGKDVESCHDMAALNILKLLSELDQQSTEMPRTGNGPMSVCGRC"}}, "data": [{"variants_of": "B1", "details": "with gag_hv1h2 gag", "values": [{"variant": "MKLGKKPMYKPVDPYSRMQSTYNYNMRGGAYPPRYFYPFPVPPLLYQVELSVGGQQFNGKGKTRQAAKHDAAAKALRILQNEPLPERLEVNGRESEEENLNKSEISQVFEIALKRNLPVNFEVARESGPPHMKNAVTKVSVGEFVGEGEGKSKKISKKNAAIAVLEELKKLPPLPAVERVKPRIKKKTKPIVKPQTSPEYGQGINPISRLAQIQQAKKEKEPEYTLLTERGLPRRREFVMQVKVGNHTAEGTGTNKKVAKRNAAENMLEILGFKVPQAQPTKPALKSEEKTPIKKPGDGRKVTFFEPGSGDENGTSNKEDEFRMPYLSHQQLPAGILPMVPEVAQAVGVSQGHHTKDFTRAAPNPAKATVTAMIARELLYGGTSPTAETILKNNISSGHVPHGPLTRPSEQLDYLSRVQGFQVEYKDFPKNNKNEFVSLINCSSQPPLISHGIGKDVESCHDMAALNILKLLSELDQQSTEMPRTGNGPMSVCGRC", "note": "[F135A]", "effect of a mutation on the interaction": "disrupting interaction"}]}]}
